Measured values as given in patent US20080267980A1.
Values belong to the binder of their own block, whether it stands above or below them.

Target: C3 ligand for CR2 deposited on CHO cells (human) (UniProt P01024)
Experiment: cell-based or functional assay

50% inhibition of CHO cell lysis: 102 nM
B1: CR2-CD59 (protein)
chain: ISCGSPPPILNGRISYYSTPIAVGTVIRYSCSGTFRLIGEKSLLCITKDKVDGTWDKPAPKCEYFNKYSSCPEPIVPGGYKIRGSTPYRHGDSVTFACKTNFSMNGNKSVWCQANNMWGPTRLPTCVSVFPLECPALPMIHNGHHTSENVGSIAPGLSVTYSCESGYLLVGEKIINCLSSGKWSAVPPTCEEARCKSLGRFPNGKVKEPPILRVGVTANFFCDEGYRLQGPPSSRCVIAGQGVAWTKMPVCSGGGGSLQCYNCPNPTADCKTAVNCSSDFDACLITKAGLQVYNKCWKFEHCNFNDVTTRLRENELTYYCCKKDLCNFNEQLEN

50% inhibition of CHO cell lysis: 18 nM
B2: CR2-DAF (protein)
chain: ISCGSPPPILNGRISYYSTPIAVGTVIRYSCSGTFRLIGEKSLLCITKDKVDGTWDKPAPKCEYFNKYSSCPEPIVPGGYKIRGSTPYRHGDSVTFACKTNFSMNGNKSVWCQANNMWGPTRLPTCVSVFPLECPALPMIHNGHHTSENVGSIAPGLSVTYSCESGYLLVGEKIINCLSSGKWSAVPPTCEEARCKSLGRFPNGKVKEPPILRVGVTANFFCDEGYRLQGPPSSRCVIAGQGVAWTKMPVCGGGSGGGGSDCGLPPDVPNAQPALEGRTSFPEDTVITYKCEESFVKIPGEKDSVICLKGSQWSDIEEFCNRSCEVPTRLNSASLKQPYITQNYFPVGTVVEYECRPGYRREPSLSPKLTCLQNLKWSTAVEFCKKKSCPNPGEIRNGQIDVPGGILFGATISFSCNTGYKLFGSTSSFCLISGSSVQWSDPLPECREIYCPAPPQIDNGIIQGERDHYGYRQSVTYACNKGFTMIGEHSIYCTV
